Assay results: the nanobody polyreactivity screen of Harvey et al. (2022)

Experiment: yeast display, Sf9 membrane polyspecificity reagent, FACS + sequencing; frameworks hold sequencing errors
Method in brief: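 In a synthetic yeast display library (Saccharomyces cerevisiae BJ5465), nanobody expression was induced with galactose for 36–48 hours. FACS gates were set low and high (top ~1%) using anti-HA fluorescence for expression and streptavidin fluorescence for binding of the Sf9 membrane reagent. Each polyreactivity label is drawn from the gate of origin.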

Sequence | polyreactivity (PSR sort gate)
QVQLVESGGGLVQAGGSLRLSCAASGLTFRLNAMGWYRQAPGKERELVAAITAIGDRTYYADSVKGRFTISRDNAKNTVYLQMKSLKQEDTAVYYCNVTPRRAQVRIGNYWGQGTQVTVSS | high polyreactivity
QVQLVESGGGLVQAGGSLRLSCAASGLTFRPYTMGWYRQAPAKERELVAAISARGGRTYYADSVKGRFTISRDNAKNTVYLQMNSLKPEDTAVYYCATLETTGVNYWGQGTQVTVSS | high polyreactivity
QVQLVESGGGLVQAGGSLRLSCAASGLTFRQYAMGWYRQAPGKERELVAAITNGGRTYYADSVKGRFTISRDNAKNTVYLQMNSLKPEDTAVYYCAAYVPTFKDRSRWYGRKYDYWGQGTQVTVSS | low polyreactivity
QVQLVESGGGLVQAGGSLRLSCAASGLTFRRYTMGWYRQAPGKERECVAAIRTSGGSTSYADSVKGRFTISRDNAKNTVYLQMNSLKPEDTAVYYCAADYGGTSYVRGTVGRKYDYWGQGTQVTVSS | high polyreactivity
QVQLVESGGGLVQAGGSLRLSCAASGLTFRVNDMGWYRQAPGKERELVATISSGGSTYYADSVKGRFTISRDNAKNTVYLQMNSLKPEDTAVYYCATNSEGQESNSYYVWMGYWGQGTHVTVSS | low polyreactivity
QVQLVESGGGLVQAGGSLRLSCAASGLTFRWYAMGWYRQAPGKEREWVAAISSGGRTYYADSVKGRFTISRDNAKNTVYLHMNSLKPEDTAVYYCNKRTLDYGFGSYGRDYWGQGTQVTVSS | high polyreactivity
QVQLVESGGGLVQAGGSLRLSCAASGLTFRYYAMGWDRPAPGKERELVAAITASVGSTYYADSVKGRFTISRDNAKNTVYLQMNSLNPEDTAVYYCNADLSYFFGPYWGLYGLDYWGQGTQVTVSS | low polyreactivity
QVQLVESGGGLVQAGGSLRLSCAASGLTFRYYAMGWYIQAPGKERELVATITATDGSTYYADSVKGRFTISRDNAKNTVYLQMNSLKPEDTAVYYRAKTYTEYSVTRSGARMDYWGQGTQVTVSS | low polyreactivity
QVQLVESGGGLVQAGGSLRLSCAASGLTFRYYAMGWYRQAPGKERELVAAITRRGSTYYADSVKGRFTISRDNAKNTVYLQMNSLKPEDTAVYFCATVTGFHSSPLRDLDYWGHGTQVTVSS | high polyreactivity
QVQLVESGGGLVQAGGSLRLSCAASGLTFSDYAMGWYRQAPGKERELVAGISSGGSTYYADSVKGRFTISRDNAENTVYLQMNSLKPEDTAVYYCAATRYNRWPIKFDYWGQGTQVTVSS | high polyreactivity
QVQLVESGGGLVQAGGSLRLSCAASGLTFSKYAMGWYRQAPGKERELVAAITRGDRTYYSDSVRGRFTISRDNAKNTVYLQMNRLKPEDTAVYYCAARQYYWGQGTQVTVSS | high polyreactivity
QVQLVESGGGLVQAGGSLRLSCAASGLTFSPNAMGWYRQAPGKERELVAAITRSGSTTHYADSVKGRFTISRDNAKNTVYLQMNSLKPEDTAVYYCARRYYGPYDYWGQGTQVTVSS | high polyreactivity
QVQLVESGGGLVQAGGSLRLSCAASGLTFSQNAMGWNRQPPGKERELVGAITRSGSTTHYADSVKGRFTISRDKAKNTVYLQMNSLKPEDTAVYYCAAVAFQTRYYYWGQGTQVTLSS | high polyreactivity
QVQLVESGGGLVQAGGSLRLSCAASGLTFSRYAMGWYRQAPGKERELVAAISSRSGSTFYADSVKGRFTISRDNAKNTVYLQMNSLKPEDTAVYYCAARRDWLGGYWGQGTQVTVSS | high polyreactivity
QVQLVESGGGLVQAGGSLRLSCAASGLTFSSYAMGWYRQAPGKERELVAAISLSGGRTYYADSVKGRFTISRDNAKNTVYLQMNSLKPEDTAVYYCAARRPNLQHANDYWGQGTQVTVSS | high polyreactivity
QVQLVESGGGLVQAGGSLRLSCAASGLTFSSYAMGWYRQAPGKERELVAAITRGGRTQYADSVKGRFTISRDNAKNTVYLQMNSLKPEDTAVYYCARSGNYYYWGQGTQVTVSS | high polyreactivity
QVQLVESGGGLVQAGGSLRLSCAASGLTFSYNAMGWYIQAPGTERELVAAINWSGGSTYYADSVKGRFTISRDNAKNTVYLPMNSLKPEDTAVYYCAADIYSKGGRGLYYWGQGTQLTVSS | high polyreactivity
QVQLVESGGGLVQAGGSLRLSCAASGLTFSYYAMGWYRQAPGKERELVAAISITGSTNYADSVKGRFTISRDNAKNTVYLQMNSLKPEDTAVYYCAARRSLSVLPYYYWGQGTQVTVSS | high polyreactivity
QVQLVESGGGLVQAGGSLRLSCAASGLTFSYYTMGCYRQAPGKERELVARISNRGTNTYYADSVKGRFTISRDNAKNTVYLQMNSLKPEDTAVYYCAKYYYTSIVGYDSWGQGTQVTVSS | low polyreactivity
QVQLVESGGGLVQAGGSLRLSCAASGLTFTGYAMGWYRQAPGKERELVAAISSRGGSTYYADSVKGRFTISRDTAKNTVYLQMNRLKPEDTAVYYCNAVVVVGRRDYWGQGTQVTVSS | high polyreactivity
QVQLVESGGGLVQAGGSLRLSCAASGLTFTTYAMGWYRQAPGKERELVAAISRRGSRTYYADSVKGRFTISRDNAKNTVYLQMNSLKPEDTAVYYCNALTGSFKTYSFDYWGQGTQVTVSS | high polyreactivity
QVQLVESGGGLVQAGGSLRLSCAASGLTFVDNAMGWYRQAPGKERELVAAISFRDGSTYYADSVKGRFTISRDNAKNTVYLQMNSLKPEDTAVYYCAAVGQTHPTSPLSTKYDYWGQGTQVTVSS | low polyreactivity

Sequence | polyreactivity (PSR sort gate)
QVQLVESGGGLVQAGGSLRLSCAASGLTFVDNAMGWYRQAPGKERELVAAISYNGGSTYYADSVKGRFTISRDNAKNTVYFQINSLKPEDTAVYYCAADISVGRYVDMDYWGQGTKVTVSS | low polyreactivity
QVQLVESGGGLVQAGGSLRLSCAASGLTFVDYAMGWYRQAPGKERELVAAISWSGGSTYYADSVKGRFTISRDIAKNTVYLQMNSLKPEDTAVYYCAAETQGWYPWGFYWGQCTQVTVSS | low polyreactivity
QVQLVESGGGLVQAGGSLRLSCAASGLTFVDYDMGWYRQAPGKERELVADINSGGYTYYADSVKGRFTISRDNAKNTVYLQMNSLKPEDTAVYYCAADDGWGYISSYDYEYWGQGTQVTVSS | high polyreactivity
QVQLVESGGGLVQAGGSLRLSCAASGLTFVFYAMGWYRQAPGKERELVAAISRRGGRTYYADSVKGRYTISRDNAKNTVYVQMNSLKPEDTAVYYCNARVRSHRCNYWGQGTQVTVSS | high polyreactivity
QVQLVESGGGLVQAGGSLRLSCAASGLTFVGNAMGWYRQAPGKERELVASITIGTSTYYADSVKGRFTISRDNAKNTVYLQMNRLKPEDTAVYYCAAEEVFQVYGLALIYDYWGQGTQVTVSS | high polyreactivity
QVQLVESGGGLVQAGGSLRLSCAASGLTFVKNAMGLYRQAPRKERELVATISSGGSTNYADSVKGRFTISRDNAKNTVYLQMNSLKPEETAVYYCNKDYTGVLLWIWWDRYDYWGQGTQVTVSS | high polyreactivity
QVQLVESGGGLVQAGGSLRLSCAASGLTFVKYAMGWYRPAPGKERELVAAISRSGGRTYYADSVKGRFTISRDNAKNTVYLQMNSLKPEDTAVYYCNADHVRGNHGYDYWGQGTQVTVSS | high polyreactivity
QVQLVESGGGLVQAGGSLRLSCAASGLTFVPNAMGWSRQAPGKERELVAGITSAGSTYYADSVKGRFTISRDNAKNTVYLQMNSLKPEDSAVYYCAKQFYRGFRYGYWGQGTQVTVSS | high polyreactivity
QVQLVESGGGLVQAGGSLRLSCAASGLTFVPNARGWYRQAPGKERELVAASSNNGGRTYYADSVKGRFTISRDNAKKTVYLQMNSLKPEDTAVYYCAKYLSPGERHSYDYWGQGTQVTVSS | high polyreactivity
QVQLVESGGGLVQAGGSLRLSCAASGLTFVQNAMGWYRQAPGKERELVAAISSRGGSTYYADSVKGRFTISRDNAKNTVYLQMNSLKPEDTAVYYCNTRSITKYDYWRRGYGYWGQGTQVTVSS | high polyreactivity
QVQLVESGGGLVQAGGSLRLSCAASGLTFVVYAMGWYRPAPGKERELVAASDFSGGDTYYADSVKGRFTISRDNAKNTVYLQRNSLKPEDTADYYCAAEYYGPSYYIGFDYWGQGTQVTVSS | high polyreactivity
QVQLVESGGGLVQAGGSLRLSCAASGLTFVWYAMGWYRQAPGKERELVAAIRGGGSTYYADSVKGRFTISRDNAKNTVYLQMNSLKPEDTAVYYCAAPYARCLFYLLHYPRFSYDYWGQGTQVTVSS | high polyreactivity
QVQLVESGGGLVQAGGSLRLSCAASGLTFVYYDMGWYRQAPGKERELVADITDGSSTNYADSVKGRFTISRDNAKNTVYLQMYSLKREDTAVYYCAVDAVFQGSLGDYEYDYWGQGTQVTVSS | low polyreactivity
QVQLVESGGGLVQAGGSLRLSCAASGLTFWAYTMGWYRQAPGKERELVAAITSSGGRTYYADSVKGRFTISRDNAKNTVYLQMNSLKPEDTAVYYCAALGGRYRASTYGYWGQGTQVTVSS | high polyreactivity
QVQLVESGGGLVQAGGSLRLSCAASGLTFWDNAMGWYRQAPGKERELVAAITRSGGSTHYADSVKGRFTISRDNAKNTVYLQMNSLKPEDTAVYYCAADYDFYDFSYQSWSEENYWGQGTQVTVSS | low polyreactivity
QVQLVESGGGLVQAGGSLRLSCAASGLTFWEYAMGWYRQAPGQERELVAAITRGGNTYYADSVKGRFTISRDNAKNTVSLQMNSLKPEDTAVYYCAARGYYLTGGCRRYYYWGQGTQVTVSS | high polyreactivity
QVQLVESGGGLVQAGGSLRLSCAASGLTFWFNAMGWYRPAPGKERALVGAIRNRGGSTYYADSVKGRFTISRDTAKNTVYLQMNSLKPEDTAVYYCAAVSWFLVGPRYYYWGQGTQVTVSS | high polyreactivity
QVQLVESGGGLVQAGGSLRLSCAASGLTFWGYAMGWYRQAPGKEREFVASISSGGGSTYYADSVKGRFTISRDNAKNTVYLQMNSLKPEDTAVYYCNADRTQDRNPYTYATFDYWGQGTQVTVSS | low polyreactivity
QVQLVESGGGLVQAGGSLRLSCAASGLTFWLNAMGWYRQAPGKERELVAAIRYSGVGTYADSVKGRFTISRDNAKNTVYLQMNSLKPEDTAVYYCAALYNLGYPQFDYWGQGTQVTVSS | low polyreactivity
QVQLVESGGGLVQAGGSLRLSCAASGLTFWPNAMGWYRQAPGKERELVAAISYTGGITYYADSVKGRFTISRDNAKNTDYLQMNSLKPEDTAVYSCNKGRRGYYSVRRYDYWGQGTQVTVSS | low polyreactivity
QVQLVESGGGLVQAGGSLRLSCAASGLTFWVYAMGWYRQAPGKERELVAAISGSGARTYYADSVKGRFTISRDNAKNTVYLQMNSLKPEDTAVYYCAARAVRATAKYEYWGQGTQVTVSS | high polyreactivity
